Blank lines part the entries; values can stand above or below the substance they belong to.
Experiments:
[1] = target: LexADB/WT-N (LexA DNA binding domain fused to residues 85-179 of human WT1) (human) (UniProt P19544); assay: yeast two-hybrid, LexA DNA binding domain fusion against Gal4 activation domain fusion
[2] = target: LexADB/lamin C hybrid (Escherichia coli (strain K12)); assay: as above
[3] = target: LexADB/WT-INS (containing residues 250-266 of WT1) (human) (UniProt P19544); assay: yeast two-hybrid, LexA DNA binding domain fusion against Gal4 activation domain vector alone
[4] = target: LexADB/WT-N (LexA DNA binding domain fused to residues 85-179 of human WT1) (human) (UniProt P19544); assay: as above
[5] = target: LexADB/lamin C hybrid (Escherichia coli (strain K12)); assay: as above
[6] = target: WT1, Wilm's tumor suppressor gene product (full length) (human) (UniProt P19544)

hUBC-9, human ubiquitin conjugating enzyme, sequence (P63279 whole entry): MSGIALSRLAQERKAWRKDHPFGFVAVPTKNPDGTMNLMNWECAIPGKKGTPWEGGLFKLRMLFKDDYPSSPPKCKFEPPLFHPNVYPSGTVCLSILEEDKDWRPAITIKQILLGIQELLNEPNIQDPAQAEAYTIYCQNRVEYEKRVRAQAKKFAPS
hUBC-9 fused with the Gal4 activation domain, sequence (P63279 whole entry, the tested form may be a part): as the sequence (P63279 whole entry) above

β-Galactosidase activity [1]: 57.9 units
β-Galactosidase activity [2]: 1.5 units
Substance: hUBC-9 fused with the Gal4 activation domain

β-Galactosidase activity [3]: 0.2 units
β-Galactosidase activity [4]: 0.3 units
β-Galactosidase activity [5]: 0.3 units
Substance: Gal4 activation domain vector alone (from UniProt P04386)

relative CAT activity (PDGF A-chain promoter driven CAT reporter, 293 cells) (% relative activity) [6]: 2
Substance: hUBC-9, human ubiquitin conjugating enzyme
